According to the supplement of paper PMC10567573:

B1: APBB1IP (parent)
chain: SQVSMWDQRWQDHQPLLPITDVP

Variants of: B1
Test: protein stability index of a GFP-peptide fusion (GPS, HEK-293T) (PSI 1-6); higher = more stable
Conditions: c terminus: native
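Note: lentivirally expressed fusions sorted by FACS into six bins by GFP to DsRed ratio, PSI derived from sequencing read proportions per bin multiplied by bin number.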

Protein stability index, by site and new letter:
P15: G 3.45, V 1.55, M 1.82, E 2.77, H 2.07, I 2.03, S 3.35, F 2.2, Y 2.27, C 2.18, N 2.77, Q 3.25, W 1.43, T 1.93, D 4.41, L 2.06, K 2.82, A 2.23
Q11: R 3.7, V 2.25, W 1.77, S 2.37, T 2.29, N 2.74, P 2.1
Q14: L 2, F 2.25, T 2.48, D 2.74, G 2.54, A 2.48, S 2.38, Y 2.06, H 2.67, K 2.28, P 2.74, E 3.31, C 3.58, N 2.89, I 2.09, V 2.23, M 2.15, R 1.86, W 2.23
I19: D 4.17, E 3.36, G 3.67, Q 2.87, L 2.03, Y 2.84, R 3.17, M 2.62, K 4.04, F 2.79, V 2.17, P 3.04, A 2.67, H 3.78, S 3, N 3.55, T 3.03, W 1.36, C 2.15
L17: P 2.84, I 1.85, F 2.06, S 2.34, V 2.71, R 2.26, K 3.67, T 2.58, M 2.17, G 3.81, H 3.2, Y 2.19, A 3.32, N 3.1, C 2.06, E 3.68, W 2.96, Q 2.59, D 3.79
L16: M 2.53, G 3.07, I 2.55, W 2.23, R 2.61, N 3.54, V 2.54, P 2.38, K 3.08, T 2.92, Y 3.06, Q 2.73, A 2.95, E 3.38, S 2.98, D 3.42, F 3.4, C 2.83
P18: A 2.91, H 2.38, W 1.28, M 1.71, Y 2.07, T 1.31, F 1.36, D 3.42, S 2.12, Q 1.71, E 2.55, N 2.56, K 2.1, R 2.29, L 1.41, C 1.82, G 1.76
T20: K 3.24, P 2.7, I 1.79, A 2.33, L 1.92, D 2.67, H 2.37, F 2.58, M 2.04, G 1.77, N 3.23, Q 2.61, C 2.34
H13: F 1.88, G 3.03, L 1.95, E 3.47, M 1.99, C 2.24, N 2.85, T 2.94, W 1.5, I 2.3, P 2.23, D 3.17, R 2.58, A 3.06, Q 2.43, Y 2.15, V 2.47, S 2.94, K 2.76
D12: E 2.15, H 1.64, C 1.56, K 1.71, W 1.24, M 1.85, N 2.17, L 2.44, A 2.31, T 2.59, S 2.1, Y 3.2, P 1.78, R 1.34, Q 2.06, V 3.1, I 1.75, F 1.8
